Drawing on patent publication US20200199241A1 (Chugai, published 2020), this text covers relative binding for seven molecules.

Holding throughout (assay): SPR (Biacore), binding amount relative to IL6R-BF648/IL6R-L = 100
The target of one assay is T1, human FcγRIa (human, UniProt P12314 16-292, limits assumed).
T1 construct: also called CD64

The target of another assay is T2, human FcγRIIa type R (human, UniProt P12318 36-217).
T2 construct: also called FcγRIIaR; FcγRIIa(R)
T2 chain: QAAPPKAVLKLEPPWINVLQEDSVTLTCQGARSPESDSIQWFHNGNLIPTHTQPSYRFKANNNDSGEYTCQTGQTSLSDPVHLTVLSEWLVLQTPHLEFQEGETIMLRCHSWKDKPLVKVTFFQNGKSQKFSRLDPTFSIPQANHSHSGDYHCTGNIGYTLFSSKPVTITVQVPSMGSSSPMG

The next assay concerns the target T3, human FcγRIIIa type V (human, UniProt P08637 17-208, limits assumed).
T3 construct: also called FcγRIIIaV; FcγRIIIa(V)

For another assay, the target named is T4, human FcγRIIa type H (human, UniProt P12318 36-217).
T4 construct: also called FcγRIIaH; FcγRIIa(H)
T4 sequence: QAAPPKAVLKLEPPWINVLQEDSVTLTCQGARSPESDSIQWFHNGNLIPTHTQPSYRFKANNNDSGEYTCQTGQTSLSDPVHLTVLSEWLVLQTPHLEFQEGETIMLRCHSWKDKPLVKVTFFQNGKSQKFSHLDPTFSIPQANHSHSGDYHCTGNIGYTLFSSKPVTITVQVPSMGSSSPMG

For another assay, the target named is T5, human FcγRIIb (human, UniProt P31994 43-217, limits assumed).
T5 construct: also called FcγIIB
T5 sequence: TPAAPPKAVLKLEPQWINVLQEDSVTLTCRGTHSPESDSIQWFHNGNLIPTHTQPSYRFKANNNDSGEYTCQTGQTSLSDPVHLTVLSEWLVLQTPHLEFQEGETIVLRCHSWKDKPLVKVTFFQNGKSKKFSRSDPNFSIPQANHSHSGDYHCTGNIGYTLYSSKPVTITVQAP

T1 sequence (P12314 16-292 limits assumed): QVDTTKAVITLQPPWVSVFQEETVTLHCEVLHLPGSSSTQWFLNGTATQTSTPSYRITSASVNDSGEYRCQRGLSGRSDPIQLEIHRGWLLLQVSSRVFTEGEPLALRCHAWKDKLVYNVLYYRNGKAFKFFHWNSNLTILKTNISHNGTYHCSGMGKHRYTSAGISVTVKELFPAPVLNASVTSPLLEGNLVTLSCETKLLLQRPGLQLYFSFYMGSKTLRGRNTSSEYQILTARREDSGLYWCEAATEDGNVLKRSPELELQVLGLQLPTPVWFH
T3 sequence (P08637 other isoform, or with tags, fused parts or gaps limits assumed): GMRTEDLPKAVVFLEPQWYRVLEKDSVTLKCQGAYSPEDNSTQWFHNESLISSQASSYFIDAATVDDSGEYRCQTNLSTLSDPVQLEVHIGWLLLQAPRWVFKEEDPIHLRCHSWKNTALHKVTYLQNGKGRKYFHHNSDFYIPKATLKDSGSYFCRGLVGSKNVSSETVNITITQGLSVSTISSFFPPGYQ

B1: IL6R-BP100/IL6R-L (antibody, human IgG1)
heavy: QVQLQESGPGLVKPSETLSLTCAVSGHSISHDHAWSWVRQPPGEGLEWIGFISYSGITNYNPSLQGRVTISRDNSKNTLYLQMNSLRAEDTAVYYCARSLARTTAMDYWGEGTLVTVSSASTKGPSVFPLAPSSKSTSGGTAALGCLVKDYFPEPVTVSWNSGALTSGVHTFPAVLQSSGLYSLSSVVTVPSSSLGTQTYICNVNHKPSNTKVDKKVEPKSCDKTHTCPPCPAPELLGGDSVFLFPPKPKDTLMISRTPEVTCVVVDVAHEDPEVKFNWYVDGVEVHNAKTKPREEQYNSTYRVVSVLTVLHQDWLNGKEYKCKVSNKALPAPIEKTISKAKGQPREPQVYTLPPSRDELTKNQVSLTCLVKGFYPSDIAVEWESNGQPENNYKTTPPVLDSDGSFFLYSKLTVDKSRWQQGNVFSCSVMHEALHNHYTQESLSLSP
light: DIQMTQSPSSLSASVGDRVTITCRASQDISSYLNWYQQKPGKAPKLLIYYTSRLHSGVPSRFSGSGSGTDFTFTISSLQPEDIATYYCQQGNTLPYTFGQGTKVEIK
notes: Alteration introduced into IL6R-B3; also called P238D/S267A
With B1, the relative binding worked out at 121 in the assay with human FcγRIa; 197 with human FcγRIIa type R; 138 with human FcγRIIIa type V; 128 with human FcγRIIa type H; 110 with human FcγRIIb.

B2: IL6R-BP118/IL6R-L (antibody, human IgG1)
heavy: QVQLQESGPGLVKPSETLSLTCAVSGHSISHDHAWSWVRQPPGEGLEWIGFISYSGITNYNPSLQGRVTISRDNSKNTLYLQMNSLRAEDTAVYYCARSLARTTAMDYWGEGTLVTVSSASTKGPSVFPLAPSSKSTSGGTAALGCLVKDYFPEPVTVSWNSGALTSGVHTFPAVLQSSGLYSLSSVVTVPSSSLGTQTYICNVNHKPSNTKVDKKVEPKSCDKTHTCPPCPAPELLGGDSVFLFPPKPKDTLMISRTPEVTCVVVDVSHEDPEVKFNWYVDGVEVHNAKTKPREEQYNSTYRVVSVLTVLHQDWLNGKEYKCKVSNSALPAPIEKTISKAKGQPREPQVYTLPPSRDELTKNQVSLTCLVKGFYPSDIAVEWESNGQPENNYKTTPPVLDSDGSFFLYSKLTVDKSRWQQGNVFSCSVMHEALHNHYTQESLSLSP
light: DIQMTQSPSSLSASVGDRVTITCRASQDISSYLNWYQQKPGKAPKLLIYYTSRLHSGVPSRFSGSGSGTDFTFTISSLQPEDIATYYCQQGNTLPYTFGQGTKVEIK
notes: Alteration introduced into IL6R-B3; also called P238D/K326S
For B2, the relative binding with human FcγRIa came to 101; with human FcγRIIa type R, 132; with human FcγRIIIa type V, 144; with human FcγRIIa type H, 128; with human FcγRIIb, 104.

B3: IL6R-BP119/IL6R-L (antibody, human IgG1)
heavy: QVQLQESGPGLVKPSETLSLTCAVSGHSISHDHAWSWVRQPPGEGLEWIGFISYSGITNYNPSLQGRVTISRDNSKNTLYLQMNSLRAEDTAVYYCARSLARTTAMDYWGEGTLVTVSSASTKGPSVFPLAPSSKSTSGGTAALGCLVKDYFPEPVTVSWNSGALTSGVHTFPAVLQSSGLYSLSSVVTVPSSSLGTQTYICNVNHKPSNTKVDKKVEPKSCDKTHTCPPCPAPELLGGDSVFLFPPKPKDTLMISRTPEVTCVVVDVSHEDPEVKFNWYVDGVEVHNAKTKPREEQYNSTYRVVSVLTVLHQDWLNGKEYKCKVSNMALPAPIEKTISKAKGQPREPQVYTLPPSRDELTKNQVSLTCLVKGFYPSDIAVEWESNGQPENNYKTTPPVLDSDGSFFLYSKLTVDKSRWQQGNVFSCSVMHEALHNHYTQESLSLSP
light: DIQMTQSPSSLSASVGDRVTITCRASQDISSYLNWYQQKPGKAPKLLIYYTSRLHSGVPSRFSGSGSGTDFTFTISSLQPEDIATYYCQQGNTLPYTFGQGTKVEIK
notes: Alteration introduced into IL6R-B3; also called P238D/K326M
Turning to B3, the relative binding with human FcγRIa is 117; with human FcγRIIa type R, 181; with human FcγRIIIa type V, 145; with human FcγRIIa type H it was 133; in the assay with human FcγRIIb it was 110.

B4: IL6R-BP116/IL6R-L (antibody, human IgG1)
heavy: QVQLQESGPGLVKPSETLSLTCAVSGHSISHDHAWSWVRQPPGEGLEWIGFISYSGITNYNPSLQGRVTISRDNSKNTLYLQMNSLRAEDTAVYYCARSLARTTAMDYWGEGTLVTVSSASTKGPSVFPLAPSSKSTSGGTAALGCLVKDYFPEPVTVSWNSGALTSGVHTFPAVLQSSGLYSLSSVVTVPSSSLGTQTYICNVNHKPSNTKVDKKVEPKSCDKTHTCPPCPAPELLGGDSVFLFPPKPKDTLMISRTPEVTCVVVDVSHEDPEVKFNWYVDGVEVHNAKTKPREEQYNSTYRVVSVLTVLHQDWLNGKEYKCKVSNTALPAPIEKTISKAKGQPREPQVYTLPPSRDELTKNQVSLTCLVKGFYPSDIAVEWESNGQPENNYKTTPPVLDSDGSFFLYSKLTVDKSRWQQGNVFSCSVMHEALHNHYTQESLSLSP
light: DIQMTQSPSSLSASVGDRVTITCRASQDISSYLNWYQQKPGKAPKLLIYYTSRLHSGVPSRFSGSGSGTDFTFTISSLQPEDIATYYCQQGNTLPYTFGQGTKVEIK
notes: Alteration introduced into IL6R-B3; also called P238D/K326T
In the case of B4, the relative binding stood at 110 with human FcγRIa; 126 with human FcγRIIa type R; 114 in the assay with human FcγRIIIa type V; 110 in the assay with human FcγRIIa type H; 108 with human FcγRIIb.

B5: IL6R-BP103/IL6R-L (antibody, human IgG1)
heavy: QVQLQESGPGLVKPSETLSLTCAVSGHSISHDHAWSWVRQPPGEGLEWIGFISYSGITNYNPSLQGRVTISRDNSKNTLYLQMNSLRAEDTAVYYCARSLARTTAMDYWGEGTLVTVSSASTKGPSVFPLAPSSKSTSGGTAALGCLVKDYFPEPVTVSWNSGALTSGVHTFPAVLQSSGLYSLSSVVTVPSSSLGTQTYICNVNHKPSNTKVDKKVEPKSCDKTHTCPPCPAPELLGGDSVFLFPPKPKDTLMISRTPEVTCVVVDVVHEDPEVKFNWYVDGVEVHNAKTKPREEQYNSTYRVVSVLTVLHQDWLNGKEYKCKVSNKALPAPIEKTISKAKGQPREPQVYTLPPSRDELTKNQVSLTCLVKGFYPSDIAVEWESNGQPENNYKTTPPVLDSDGSFFLYSKLTVDKSRWQQGNVFSCSVMHEALHNHYTQESLSLSP
light: DIQMTQSPSSLSASVGDRVTITCRASQDISSYLNWYQQKPGKAPKLLIYYTSRLHSGVPSRFSGSGSGTDFTFTISSLQPEDIATYYCQQGNTLPYTFGQGTKVEIK
notes: Alteration introduced into IL6R-B3; also called P238D/S267V
As to B5, the relative binding with human FcγRIa was 56; with human FcγRIIa type R, 163; with human FcγRIIIa type V it was 77; with human FcγRIIa type H, 69; in the assay with human FcγRIIb, 107.

B6: IL6R-BP102/IL6R-L (antibody, human IgG1)
heavy: QVQLQESGPGLVKPSETLSLTCAVSGHSISHDHAWSWVRQPPGEGLEWIGFISYSGITNYNPSLQGRVTISRDNSKNTLYLQMNSLRAEDTAVYYCARSLARTTAMDYWGEGTLVTVSSASTKGPSVFPLAPSSKSTSGGTAALGCLVKDYFPEPVTVSWNSGALTSGVHTFPAVLQSSGLYSLSSVVTVPSSSLGTQTYICNVNHKPSNTKVDKKVEPKSCDKTHTCPPCPAPELLGGDSVFLFPPKPKDTLMISRTPEVTCVVVDVQHEDPEVKFNWYVDGVEVHNAKTKPREEQYNSTYRVVSVLTVLHQDWLNGKEYKCKVSNKALPAPIEKTISKAKGQPREPQVYTLPPSRDELTKNQVSLTCLVKGFYPSDIAVEWESNGQPENNYKTTPPVLDSDGSFFLYSKLTVDKSRWQQGNVFSCSVMHEALHNHYTQESLSLSP
light: DIQMTQSPSSLSASVGDRVTITCRASQDISSYLNWYQQKPGKAPKLLIYYTSRLHSGVPSRFSGSGSGTDFTFTISSLQPEDIATYYCQQGNTLPYTFGQGTKVEIK
notes: Alteration introduced into IL6R-B3; also called P238D/S267Q
For B6, the relative binding in the assay with human FcγRIa is 104; with human FcγRIIa type R, 165; with human FcγRIIIa type V, 86; with human FcγRIIa type H, 66; with human FcγRIIb, 106.

B7: IL6R-BP110/IL6R-L (antibody, human IgG1)
heavy: QVQLQESGPGLVKPSETLSLTCAVSGHSISHDHAWSWVRQPPGEGLEWIGFISYSGITNYNPSLQGRVTISRDNSKNTLYLQMNSLRAEDTAVYYCARSLARTTAMDYWGEGTLVTVSSASTKGPSVFPLAPSSKSTSGGTAALGCLVKDYFPEPVTVSWNSGALTSGVHTFPAVLQSSGLYSLSSVVTVPSSSLGTQTYICNVNHKPSNTKVDKKVEPKSCDKTHTCPPCPAPELLGGDSVFLFPPKPKDTLMISRTPEVTCVVVDVSNEDPEVKFNWYVDGVEVHNAKTKPREEQYNSTYRVVSVLTVLHQDWLNGKEYKCKVSNKALPAPIEKTISKAKGQPREPQVYTLPPSRDELTKNQVSLTCLVKGFYPSDIAVEWESNGQPENNYKTTPPVLDSDGSFFLYSKLTVDKSRWQQGNVFSCSVMHEALHNHYTQESLSLSP
light: DIQMTQSPSSLSASVGDRVTITCRASQDISSYLNWYQQKPGKAPKLLIYYTSRLHSGVPSRFSGSGSGTDFTFTISSLQPEDIATYYCQQGNTLPYTFGQGTKVEIK
notes: Alteration introduced into IL6R-B3; also called P238D/H268N
As to B7, the relative binding with human FcγRIa is 105; in the assay with human FcγRIIa type R, 128; with human FcγRIIIa type V it was 127; with human FcγRIIa type H, 127; in the assay with human FcγRIIb, 101.
